± gives the standard deviation of the averaged measurements.
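Further: ATP exposure 15 min at 22 °C before imaging.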

For the series, the system named is ATP. Put plainly: switch fluorescence ratio, 500 uM ATP over buffer (Cy3 cluster intensity, sum of 5 cycles each) (fold (ratio)); higher = stronger signal-on switching upon ATP binding; sequences stand for … in TCGTCGGCAGCGTCAGATGTGTATAAGAGACAGTTTTTTTTTTTTTTTTTTTTTTTTT…TC. As to conditions: aptamer strand: ATP DNA aptamer (quencher-CACCTGGGGGAGTATTGCGGAGGAAGG + anchor), 100 nM annealed; ATP concentration: 500 uM. The method, boiled down:
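Between each of five buffer/ATP cycles, the flow-cell was stripped with NaOH and re-annealed. Each cycle imaged Cy3-labelled switching-strand clusters, annealed to 100 nM quencher-labelled ATP aptamer on a modified Illumina MiSeq flow-cell, first in selection buffer and then after 15 min with 500 uM ATP at 22 °C. The fluorescence ratio is summed target-cycle over summed buffer-cycle Cy3 intensity per cluster, averaged per switch-domain sequence, with clusters outside 100-1000 RFU excluded.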
In the case of ACCTTGGCTC, the switch fluorescence ratio was 1.1 ± 0.06.

On to TATTCTCATT, for which the switch fluorescence ratio is 0.977 ± 0.023. Take TCTTGCCGCT: the switch fluorescence ratio is 1.01 ± 0.061.

In the case of TTGAAGGGGC, the switch fluorescence ratio amounted to 0.997 ± 0.055. For AATCTTGATG, the switch fluorescence ratio was 0.981 ± 0.03. In the case of TAGCTGAGTG, the switch fluorescence ratio worked out at 0.985 ± 0.043. On to ATGCGTCGCG, for which the switch fluorescence ratio was 0.986 ± 0.025. Consider CGCTATTGGT, for which the switch fluorescence ratio was 1.002 ± 0.0043.

As for TGCTATTGTG, the switch fluorescence ratio worked out at 0.959 ± 0.02.

As to TTGAGGTAGT, the switch fluorescence ratio stood at 0.984 ± 0.014. With TCCTGGGGTC, the switch fluorescence ratio was 1.05 ± 0.043.

For the sequence CGAGGGCCGG, the switch fluorescence ratio turned out to be 0.9974 ± 0.0081.

Regarding TTTTTATCTT, the switch fluorescence ratio worked out at 1.03 ± 0.046. In the case of GTGGTGTCGT, the switch fluorescence ratio was 0.984 ± 0.016. Turning to CAATGGGGAA, the switch fluorescence ratio worked out at 1 ± 0.014. The same measure for GCTGTTTCGG: 0.981 ± 0.01; for GATAGTATTT: 1.005 ± 0.0066. On to CTTGACAAGG, for which the switch fluorescence ratio amounted to 0.982 ± 0.014. Take TGGGAGTAGC: the switch fluorescence ratio came to 0.9907 ± 0.0091. As to TATTATGATC, the switch fluorescence ratio turned out to be 1.03 ± 0.02. Consider TAATGCTTAT, for which the switch fluorescence ratio was 1.06 ± 0.12. For the sequence GTGGGGGGGT, the switch fluorescence ratio was determined as 0.992 ± 0.026. TCGTTACCTT: the switch fluorescence ratio turned out to be 1.135 ± 0.0013. As for GGTACCAGGC, the switch fluorescence ratio stood at 1.019 ± 0.0021. Regarding ATCACATTGG, the switch fluorescence ratio stood at 1.02 ± 0.071. In the case of CAAGGTTATG, the switch fluorescence ratio came out at 0.974 ± 0.013.

Take CGGTTTTGGC: the switch fluorescence ratio was found to be 0.998 ± 0.019. Regarding AATACTGATG, the switch fluorescence ratio was found to be 1.007 ± 0.0032.

Turning to GGGGGACCCA, the switch fluorescence ratio stood at 0.982 ± 0.06. Regarding CGGATGCGTT, the switch fluorescence ratio turned out to be 0.981 ± 0.024. In the case of TATACTAGTT, the switch fluorescence ratio was determined as 1.04 ± 0.033. As for TTTGTTTCAA, the switch fluorescence ratio amounted to 0.982 ± 0.013.

With CGTGTGGTGG, the switch fluorescence ratio was 0.944 ± 0.032. Turning to ATACAGCACC, the switch fluorescence ratio came to 1.45 ± 0.048. As to AAAGGGGGTA, the switch fluorescence ratio was 0.986 ± 0.015. With GACACACAAA, the switch fluorescence ratio turned out to be 1.18 ± 0.11. On to TAAAGTAGAT, for which the switch fluorescence ratio stood at 0.988 ± 0.027. The same measure for ACCTGGCATC: 1.122 ± 0.0016. For the sequence TATGAGGTCT, the switch fluorescence ratio is 1.02 ± 0.032. The same measure for TTCACTGGGG: 1.05 ± 0.012. Consider AATAATCGGC, for which the switch fluorescence ratio amounted to 0.994 ± 0.06. For the sequence CCGATTAATA, the switch fluorescence ratio was 1.34 ± 0.028. For TTGGTAGCGG, the switch fluorescence ratio came to 1.02 ± 0.034.

For TTAGGAGAGC, the switch fluorescence ratio is 0.979 ± 0.014. The same measure for AGAGCGGA: 0.981 ± 0.011; for GTAAGTACTG: 1.36 ± 0.015; for TTACTGGGGA: 1.04 ± 0.011. Turning to AGAGGCCGAT, the switch fluorescence ratio is 1.022 ± 0.0012. With CCGATTGGTA, the switch fluorescence ratio came to 1.027 ± 0.0057. The same measure for TCGGACGGGG: 1.03 ± 0.015; for CGATGTATAA: 1.01 ± 0.025; for GATGTGATTC: 1.04 ± 0.027. Take AAGGACACGG: the switch fluorescence ratio was found to be 1.042 ± 0.01. Take TTACGGGCAC: the switch fluorescence ratio is 1.18 ± 0.012. For the sequence TGTTACGGGG, the switch fluorescence ratio turned out to be 0.98654 ± 0.00045.

Take CTTGTAGGGT: the switch fluorescence ratio came out at 1.01 ± 0.021.

CTTGAGGGGG: the switch fluorescence ratio came to 1.04 ± 0.092.

Take AAGGGGTTGG: the switch fluorescence ratio was 1.01 ± 0.019. As for GAGATCCATG, the switch fluorescence ratio is 1.01 ± 0.038. For the sequence GGCAGTTTTT, the switch fluorescence ratio is 0.985 ± 0.02. As for TCCAATCGGT, the switch fluorescence ratio came to 0.973 ± 0.019.

Turning to ATTTTCGTTG, the switch fluorescence ratio was determined as 0.9666 ± 0.0095. In the case of CGCACCTGAG, the switch fluorescence ratio was found to be 1.23 ± 0.044.

In the case of CTTTTTAATG, the switch fluorescence ratio was found to be 0.98 ± 0.028.

Turning to AGTCTAAGTG, the switch fluorescence ratio turned out to be 0.956 ± 0.021. As for ACCTTGGTTG, the switch fluorescence ratio worked out at 0.9609 ± 0.0054. TGTTTGGAGG: the switch fluorescence ratio was found to be 0.985 ± 0.022. The same measure for GGGTCAATGG: 1.04 ± 0.031; for AGGGAATAGC: 1.01 ± 0.011.

For the sequence GTAAGCAAAG, the switch fluorescence ratio came to 1.2 ± 0.081. As to GCCAGTATCC, the switch fluorescence ratio amounted to 0.997 ± 0.014.

As for TCAGTTTGGT, the switch fluorescence ratio was determined as 0.99 ± 0.017. The same measure for TTTCCAGGCA: 1.03 ± 0.0051. Turning to GCTGCTAATA, the switch fluorescence ratio came out at 1.039 ± 0.01. Take CAACATTTCA: the switch fluorescence ratio stood at 1.01 ± 0.022. GCTGTTGGCG: the switch fluorescence ratio was found to be 0.9728 ± 0.0043. GGGGGTCGGA: the switch fluorescence ratio was 1.03 ± 0.043. Take GTGGAAAGTA: the switch fluorescence ratio was 0.997 ± 0.011. On to TGATCACACG, for which the switch fluorescence ratio turned out to be 1.024 ± 0.01.

The record behind these values is the supplement of paper PMC10126150.
